Laboratory results published in patent publication EP4631959A2, “NOVEL MINIGASTRIN-DERIVED CHOLECYSTOKININ 2 RECEPTOR BINDING MOLECULES FOR IMAGING AND TARGETED RADIOTHERAPY” (priority 2022, dated 2024).
Where two headings read alike, the source gives them in different places. Starred links: 1 amine or outer side, 2 acyl side, 3 side chain; linkers in the order of their positions; H or OH if unused. Non-standard residues stand in square brackets, D forms with d. Residues, ends and D or L forms follow the SMILES beside them. *: point of attachment. Benzoyl(4-SiFtBu2) = CC(C)(C)[Si](F)(c1ccc(C(=O)*)cc1)C(C)(C)C; X1 = CC(C)(C)[Si](F)(c1ccc(C[N+](C)(C)CC(=O)*)cc1)C(C)(C)C; DOTA = O=C(O)CN1CCN(CC(=O)O)CCN(CC(=O)*)CCN(CC(=O)O)CC1; d(γGlu) = O=C(O)[C@@H](CCC(=O)[*:2])N[*:1]; 1Nal = N[C@@H](Cc1cccc2ccccc12)C(=O)O; Hyp = O=C(O)[C@@H]1C[C@@H](O)CN1; dCit = NC(=O)NCCC[C@@H](N)C(=O)O; PEG5 = NCCOCCOCCOCCOCCOCCC(=O)O; NMeNle = CCCC[C@H](NC)C(=O)O; PEG4 = NCCOCCOCCOCCOCCC(=O)O; dDap = NC[C@@H](N)C(=O)O

Legend:
[1] = biological target: T1, Human serum albumin (HSA) (Homo sapiens, UniProt P02768); assay: Determination of HSA binding on a Chiralpak HSA column; format: in vitro ADME
T1 construct: purchased Daicel, Tokyo, Japan H13H-2433
Protocol: Human serum albumin (HSA) binding of the CCK-2R-targeted compounds was determined as reported by Valko et al., using a Chiralpak HSA column (50 x 3 mm, 5 µm, H13H-2433, Daicel, Tokyo, Japan) at a constant flow rate of 0.5 mL/min at rt. Therefore, an aq. solution of NH4OAc (pH = 6.9, 50 mM) as mobile phase A and isopropanol as mobile phase B were freshly prepared. In order to calibrate the column prior to the experiments, the retention times of nine reference substances with a HSA binding in the range of 13 to 99% were determined using a gradient of 100% A (0 to 3 min), followed by 80% A (3 to 40 min). Furthermore, all substances tested, were dissolved in a mixture (1/1, v/v) of A and B reaching a final concentration of 0.5 mg/mL. The HSA binding of all rhCCK ligands tested, was determined using the same gradient as for the calibration probes. The non-linear regression of the calibration experiments and the CCK-2R ligands (Fig. 29) was established using the OriginPro 2016G software (Northampton, United States).

[2] = Biodistribution in AR4-2J tumor-bearing CB17-SCID mice; format: in vivo; settings: female, CB17-SCID, mouse, in vivo, iv, 100 pmol, total radioactivity
Protocol: All animal experiments were conducted in accordance with general animal welfare regulations in Germany (German animal protection act, in the edition of the announcement, dated May 18th, 2006, as amended by Article 280 of June 19th 2020, approval no. ROB-55.2-1-2532.Vet_02-18-109 by the General Administration of Upper Bavaria) and the institutional guidelines for the care and use of animals. CB17-SCID mice of both genders (Charles River Laboratories International Inc., Sulzfeld, Germany) were let to acclimate at the in-house animal facility at least for one week before inoculation was performed. To establish tumor xenografts, AR4-2J cells (5.0 × 10^6 cells per 200 µL) were suspended in a 1/1 mixture (v/v) of Dulbecco modified Eagle medium / Nutrition Mixture F-12 with Glutamax-I (1/1) and Cultrex® Basement Membrane Matrix Type 3 (Trevigen, Gaithersburg, MD, USA) and inoculated subcutaneously onto the right shoulder of 6-10 weeks old CB17-SCID mice (Charles River, Sulzfeld, Germany). Mice were used for experiments when tumors had grown to a volume of 150-300 mm^3 (1-2 weeks after inoculation). Exclusion criteria for animals from an experiment were either a weight loss higher than 20%, a tumor size above 1,500 mm^3, an ulceration of the tumor, a respiratory distress or a change of behavior. None of these criteria applied to any animal from the experiment. Neither randomization nor blinding was applied in the allocation of the experiments. Health status is SPF according to FELASA.
Approximately 1-5 MBq (100 pmol) of the radiolabeled minigastrin analogues were injected into the tail vein of AR4-2J tumor-bearing female CB17-SCID mice and sacrificed at 1 to 24 h post injection (n = 4-5). Selected organs were removed, weighted and measured in a γ-counter.

CCK-2R [3] = biological target: T2, CCK-2R (Rattus norvegicus, UniProt P30553); assay: Determination of IC50: CCK-2R affinity on AR4-2J cells, competition with [^177Lu]Lu-DOTA-PP-F11N; format: binding; settings: AR4-2J cells
T2 construct: The CCK-2R expressing rat pancreatic tumor cells AR4-2J; host or cells: AR4-2J rat pancreatic tumor cells
T2 sequence (P30553 1-452): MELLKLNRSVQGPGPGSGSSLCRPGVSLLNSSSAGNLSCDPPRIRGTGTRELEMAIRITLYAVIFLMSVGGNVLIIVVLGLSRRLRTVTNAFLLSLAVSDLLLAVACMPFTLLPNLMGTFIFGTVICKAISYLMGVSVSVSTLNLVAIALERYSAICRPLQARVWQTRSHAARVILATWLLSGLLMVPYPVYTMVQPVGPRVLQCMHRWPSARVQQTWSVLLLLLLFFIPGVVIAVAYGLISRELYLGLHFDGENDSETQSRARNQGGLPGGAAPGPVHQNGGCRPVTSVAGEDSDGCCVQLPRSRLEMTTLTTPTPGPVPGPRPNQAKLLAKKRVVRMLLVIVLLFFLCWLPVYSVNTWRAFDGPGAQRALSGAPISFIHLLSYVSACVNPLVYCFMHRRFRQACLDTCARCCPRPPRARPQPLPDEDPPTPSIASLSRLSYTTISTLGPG
Method in brief: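 Competitive displacement of 0.3 pmol/well [177Lu]Lu-DOTA-PP-F11N by compounds (10^-10 to 10^-4 M) on AR4-2J cells in BSA-supplemented medium, 3 h at 37 °C. Free label was collected from medium plus PBS rinse, and cell-bound label was recovered with 1 M NaOH, both measured by γ-counter. Each IC50 was determined twice, in triplicate.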

[4] = n-Octanol-PBS distribution coefficient (logD7.4); format: physicochemical; settings: pH = 7.4, ^177Lu-labeled
Protocol: Approximately 1 MBq of the labeled tracer was dissolved in 1 mL of a 1/1 mixture (v/v) of phosphate buffered saline (PBS, pH = 7.4) and n-octanol in an Eppendorf tube (1.5 mL). After vigorous mixing of the suspension for 3 min at rt, the vial was centrifuged at 9,000 rpm for 5 min (Biofuge 15, Heraeus Sepatech, Osterode, Germany) and 200 µL aliquots of both layers were measured in a γ-counter. The experiment was repeated at least five times.

CCK-2R [5] = assay: Competition studies in AR4-2J tumor-bearing CB17-SCID mice; format: in vivo; settings: co-administration of excess unlabeled competitor (40 nmol), 24 h p.i.
Protocol: For competition studies, the radiolabeled compound (approx. 1-5 MBq, 100 pmol) was co-injected with [^natLu]Lu-DOTA-MGS5 (40 nmol) into the tail vein of AR4-2J tumor-bearing CB17-SCID mice and sacrificed at 1 to 24 h post injection (n = 2). Selected organs were removed, weighted and measured in a γ-counter.

[6] = Tab. 8, metal not stated (Fig. 18: ^natLu)
[7] = read-out: IC50 [nM] (n = 3), ^natLu-labeled, ^natLu-labeled
[8] = ^natLu-labeled, read-out: IC50 [nM] (n = 3), ^natLu-labeled

T1 sequence (P02768 25-609): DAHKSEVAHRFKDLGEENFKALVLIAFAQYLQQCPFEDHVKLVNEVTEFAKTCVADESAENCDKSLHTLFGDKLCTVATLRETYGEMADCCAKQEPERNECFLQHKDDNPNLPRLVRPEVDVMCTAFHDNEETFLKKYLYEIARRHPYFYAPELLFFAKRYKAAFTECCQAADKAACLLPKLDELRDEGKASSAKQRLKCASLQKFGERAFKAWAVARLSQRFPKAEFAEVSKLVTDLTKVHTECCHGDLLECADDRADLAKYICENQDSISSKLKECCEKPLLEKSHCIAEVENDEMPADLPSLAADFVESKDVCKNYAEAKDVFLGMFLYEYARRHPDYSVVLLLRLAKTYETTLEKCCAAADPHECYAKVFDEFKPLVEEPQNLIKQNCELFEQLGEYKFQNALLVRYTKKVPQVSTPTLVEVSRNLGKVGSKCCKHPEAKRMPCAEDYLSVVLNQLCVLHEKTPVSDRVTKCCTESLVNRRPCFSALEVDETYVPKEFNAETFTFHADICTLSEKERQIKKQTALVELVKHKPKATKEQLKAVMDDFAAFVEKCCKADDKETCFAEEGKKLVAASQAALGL

| Structure (SMILES) | logD7.4 (n ≥ 5), ^177Lu-labeled [4] | HSA binding [%] [1, 6] [%] | IC50 (CCK-2R [3]; [7]) [nM] | IC50 (CCK-2R [3]; [8]) [nM] | also measured |
| --- | --- | --- | --- | --- | --- |
| CCCC[C@@H](C(=O)N[C@@H](CC(=O)O)C(=O)N[C@@H](Cc1cccc2ccccc12)C(N)=O)N(C)C(=O)[C@H](Cc1c[nH]c2ccccc12)NC(=O)CNC(=O)[C@H](Cc1ccc(O)cc1)NC(=O)[C@H](C)NC(=O)[C@@H](CCC(=O)O)NC(=O)CN1CCN(CC(=O)O)CCN(CC(=O)O)CCN(CC(=O)O)CC1 [DOTA-MGS5, DOTA-glu^6-Ala^7-Tyr^8-Gly^9-Trp^10-(N-Me)Nle^11-Asp^12-1-Nal^13-NH2, reference compound] |  |  |  |  | HSA binding [%] [1]: 87.6%; HSA binding [%], ^natCu-labeled [1]: 87.6%; HSA binding [%], ^natGa-labeled [1]: 82.0%; HSA binding [%], ^natLu-labeled [1]: 91.9%; tissue to tissue ratio at 24 h [2]: 1480 ± 329; tissue uptake at 24 h [2]: 11 ± 1.15 %ID/g; IC50 (CCK-2R [3]; ^natCu-labeled, read-out: IC50 [nM] (n = 3), ^natCu-labeled): 3.9 ± 1 nM; IC50 (CCK-2R [3]; ^natGa-labeled, read-out: IC50 [nM] (n = 3), ^natGa-labeled): 3.6 ± 0.4 nM |
| CCCC[C@@H](C(=O)N[C@@H](CC(=O)O)C(=O)N[C@@H](Cc1cccc2ccccc12)C(N)=O)N(C)C(=O)[C@H](Cc1c[nH]c2ccccc12)NC(=O)CCOCCOCCOCCOCCNC(=O)CC[C@@H](NC(=O)[C@@H]1C[C@@H](O)CN1C(=O)[C@@H]1C[C@@H](O)CN1C(=O)[C@@H]1C[C@@H](O)CN1C(=O)[C@@H](CCCNC(N)=O)NC(=O)[C@@H](CCCNC(N)=O)NC(=O)[C@@H](CCCNC(N)=O)NC(=O)CC[C@@H](NC(=O)[C@@H](CNC(=O)c1ccc([Si](F)(C(C)(C)C)C(C)(C)C)cc1)NC(=O)CN1CCN(CC(=O)O)CCN(CC(=O)O)CCN(CC(=O)O)CC1)C(=O)O)C(=O)O [DOTA-rhCCK-85, DOTA-dap(SiFA)-γ-glu-(cit)3-(Hyp)3-γ-glu-(PEG)3-Trp-(N-Me)Nle-Asp-1-Nal-NH2] ({DOTA}-[dDap](Benzoyl(4-SiFtBu2))[d(γGlu)][dCit][dCit][dCit][Hyp][Hyp][Hyp][d(γGlu)][PEG4]W[NMeNle]D[1Nal]-NH2) | −1.95 ± 0.09 | 90.3 | 12.9 ± 0.3 |  |  |
| CCCC[C@@H](C(=O)N[C@@H](CC(=O)O)C(=O)N[C@@H](Cc1cccc2ccccc12)C(N)=O)N(C)C(=O)[C@H](Cc1c[nH]c2ccccc12)NC(=O)CCOCCOCCOCCOCCNC(=O)CC[C@@H](NC(=O)[C@@H]1C[C@@H](O)CN1C(=O)[C@@H]1C[C@@H](O)CN1C(=O)[C@@H]1C[C@@H](O)CN1C(=O)[C@@H]1C[C@@H](O)CN1C(=O)[C@@H]1C[C@@H](O)CN1C(=O)[C@@H]1C[C@@H](O)CN1C(=O)[C@@H]1C[C@@H](O)CN1C(=O)[C@@H]1C[C@@H](O)CN1C(=O)CC[C@@H](NC(=O)[C@@H](CNC(=O)c1ccc([Si](F)(C(C)(C)C)C(C)(C)C)cc1)NC(=O)CN1CCN(CC(=O)O)CCN(CC(=O)O)CCN(CC(=O)O)CC1)C(=O)O)C(=O)O [DOTA-rhCCK-86, DOTA-dap(SiFA)-γ-glu-(Hyp)8-γ-glu-(PEG)3-Trp-(N-Me)Nle-Asp-1-Nal-NH2] ({DOTA}-[dDap](Benzoyl(4-SiFtBu2))[d(γGlu)][Hyp][Hyp][Hyp][Hyp][Hyp][Hyp][Hyp][Hyp][d(γGlu)][PEG4]W[NMeNle]D[1Nal]-NH2) | −1.86 ± 0.06 | 88.1 | 10 ± 1.4 |  |  |
| CCCC[C@@H](C(=O)N[C@@H](CC(=O)O)C(=O)N[C@@H](Cc1cccc2ccccc12)C(N)=O)N(C)C(=O)[C@H](Cc1c[nH]c2ccccc12)NC(=O)CCOCCOCCOCCOCCNC(=O)CC[C@@H](NC(=O)CCOCCOCCOCCOCCOCCNC(=O)[C@@H](CNC(=O)C[N+](C)(C)Cc1ccc([Si](F)(C(C)(C)C)C(C)(C)C)cc1)NC(=O)CN1CCN(CC(=O)O)CCN(CC(=O)O)CCN(CC(=O)O)CC1)C(=O)O [DOTA-rhCCK-90, DOTA-dap(SiFAlin)-(PEG)4-γ-glu-(PEG)3-Trp-(N-Me)Nle-Asp-1-Nal-NH2] ({DOTA}-[dDap](X1)[PEG5][d(γGlu)][PEG4]W[NMeNle]D[1Nal]-NH2) | −0.76 ± 0.09 | 94.5 |  | 9.85 ± 1 |  |
| CCCC[C@@H](C(=O)N[C@@H](CC(=O)O)C(=O)N[C@@H](Cc1cccc2ccccc12)C(N)=O)N(C)C(=O)[C@H](Cc1c[nH]c2ccccc12)NC(=O)CCOCCOCCOCCOCCNC(=O)CC[C@@H](NC(=O)CCOCCOCCOCCOCCOCCNC(=O)CC[C@@H](NC(=O)[C@@H](CNC(=O)C[N+](C)(C)Cc1ccc([Si](F)(C(C)(C)C)C(C)(C)C)cc1)NC(=O)CN1CCN(CC(=O)O)CCN(CC(=O)O)CCN(CC(=O)O)CC1)C(=O)O)C(=O)O [DOTA-rhCCK-91, DOTA-dap(SiFAlin)-γ-glu-(PEG)4-γ-glu-(PEG)3-Trp-(N-Me)Nle-Asp-1-Nal-NH2] | −1.66 ± 0.08 | 90.0 |  | 8.56 ± 0.7 | IC50 (CCK-2R [3]; read-out: IC50 [nM] (n = 3), ^natGa-labeled, ^natGa-labeled): 8.24 ± 1.6 nM |
| CCCC[C@H](NC(=O)[C@H](Cc1c[nH]c2ccccc12)NC(=O)CNC(=O)[C@H](Cc1ccc(O)cc1)NC(=O)[C@H](C)NC(=O)CC[C@@H](NC(=O)CC[C@@H](NC(=O)CC[C@@H](NC(=O)CC[C@@H](NC(=O)CC[C@@H](NC(=O)CC[C@@H](NC(=O)[C@@H](CNC(=O)c1ccc([Si](F)(C(C)(C)C)C(C)(C)C)cc1)NC(=O)CCC(C(=O)O)N1CCN(CC(=O)O)CCN(CC(=O)O)CCN(CC(=O)O)CC1)C(=O)O)C(=O)O)C(=O)O)C(=O)O)C(=O)O)C(=O)O)C(=O)N[C@@H](CC(=O)O)C(=O)N[C@@H](Cc1ccccc1)C(N)=O (some centres unmarked) [DOTAGA-MG-SiFA-19, DOTAGA-dap(SiFA)-γ-F11N] | −2.54 ± 0.05 |  |  |  | activity levels in stomach and tumor in competition studies (CCK-2R specificity) (CCK-2R [5]): specific |
